Results from article PMC6251712 (Archives of biochemistry and biophysics, 2018).
Changes are numbered by the printed parent chain. Values belong to the molecule of their own block, whether it stands above or below them. Non-standard residues stand in square brackets, D forms with d. No end group written: not given here. FAM = fluorescent label on the peptide N-terminus (FAM, not expanded in the evidence); pY = N[C@@H](Cc1ccc(OP(=O)(O)O)cc1)C(=O)O

Columns and labels:
[1] = molecular target: SHIP2 SH2 domain (SHIP2-SH2), wild type (human) (UniProt O15357); test: NMR titration
[2] = molecular target: FAM-labeled c-MET peptide (1353-1360) with Y1356 phosphorylated, FAM-N-A-T-pY-V-N-V-K; test: fluorescence polarisation
SHIP2-SH2 S27A = molecular target: T1, SHIP2-SH2 S27A (human, UniProt O15357 20-117, S27A); test: fluorescence polarisation
T1 sequence (looked up): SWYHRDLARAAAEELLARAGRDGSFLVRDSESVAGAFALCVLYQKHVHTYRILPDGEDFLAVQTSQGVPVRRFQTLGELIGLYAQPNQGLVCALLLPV

SHIP2-SH2 R28A = molecular target: T2, SHIP2-SH2 R28A (human, UniProt O15357 20-117, R28A); test: fluorescence polarisation
T2 sequence (looked up): T1 sequence (looked up) with A8S, R9A

SHIP2-SH2 D48A = molecular target: T3, SHIP2-SH2 D48A (human, UniProt O15357 20-117, D48A); test: fluorescence polarisation
T3 sequence (looked up): T1 sequence (looked up) with A8S, D29A

SHIP2-SH2 S49A = molecular target: T4, SHIP2-SH2 S49A (human, UniProt O15357 20-117, S49A); test: fluorescence polarisation
T4 sequence (looked up): T1 sequence (looked up) with A8S, S30A

SHIP2-SH2 E50A = molecular target: T5, SHIP2-SH2 E50A (human, UniProt O15357 20-117, E50A); test: fluorescence polarisation
T5 sequence (looked up): T1 sequence (looked up) with A8S, E31A

SHIP2-SH2 R70A = molecular target: T6, SHIP2-SH2 R70A (human, UniProt O15357 20-117, R70A); test: fluorescence polarisation
T6 sequence (looked up): T1 sequence (looked up) with A8S, R51A

SHIP2-SH2 Q82A = molecular target: T7, SHIP2-SH2 Q82A (human, UniProt O15357 20-117, Q82A); test: fluorescence polarisation
T7 sequence (looked up): T1 sequence (looked up) with A8S, Q63A

SHIP2-SH2 S84A = molecular target: T8, SHIP2-SH2 S84A (human, UniProt O15357 20-117, S84A); test: fluorescence polarisation
T8 sequence (looked up): T1 sequence (looked up) with A8S, S65A

Kd [1]: 16.5 µM
Molecule: Y1356-phosphorylated c-MET peptide (1353-1360), N-A-T-pY-V-N-V-K, unlabeled

Kd [2]: 7.4 µM
Molecule: SHIP2 SH2 domain (SHIP2-SH2), wild type (from UniProt O15357 20-117) (domain or fragment)

Kd (SHIP2-SH2 S27A): 7.3 ± 0.3 µM | Kd (SHIP2-SH2 R28A): 24.7 ± 1 µM | Kd (SHIP2-SH2 D48A): 5.5 ± 0.2 µM | Kd (SHIP2-SH2 S49A): 134 ± 5.6 µM | Kd (SHIP2-SH2 E50A): 3.2 ± 0.1 µM | Kd (SHIP2-SH2 R70A): 239 ± 12.1 µM | Kd (SHIP2-SH2 Q82A): 7.5 ± 0.3 µM | Kd (SHIP2-SH2 S84A): 6.4 ± 0.2 µM
Molecule: {FAM}-NAT[pY]VNVK [FAM-labeled c-MET peptide (1353-1360) with Y1356 phosphorylated, FAM-N-A-T-pY-V-N-V-K]
